# Experimental data taken from patent US20110105412A1.
# Target: gp120 YU2 (HIV, type R5 isolate YU2) (UniProt P35961)
# Experiment: SPR, indirect; rising concentrations of mCD4 mixed with unlinked HS12Lb, co-incubated with 40 nM gp120 YU2; readout: gp120 bound to the mAb 17b surface [bottom panel]
substance,measurement,value
miniCD4 peptide (mCD4),EC50 (read off the curve),6 nM
